Results published in article doi:10.1101/2022.04.12.488087 (bioRxiv, 2022).

B1: VHH72, previously published nanobody (VHH)
VHH: QVQLQESGGGLVQAGGSLRLSCAASGRTFSEYAMGWFRQAPGKEREFVATISWSGGSTYYTDSVKGRFTISRDNAKNTVYLQMNSLKPDDTAVYYCAAAGLGTVVSEWDYDYDYWGQGTQVTVSS
B2: nanobody Nb70 (VHH with 6xHis tag, for crystal structural analysis) (VHH)
VHH: QVQLVESGGGLVQAGGSLRLSCVASGRTFSRYAMGWFRQAPGKEREFVAVIEWDGGTSYYVDSVKGRFTISRDNAKNTVYLQMNSLKPEDTAVYYCAAGGNQYYSATYSIWNEYDFWGQGTQVTVSS
B3: nanobody 3-2A2-4 (VHH with 6xHis tag, for crystal structural analysis) (VHH)
VHH: QVQLQESGGGLVQPGESLRLSCAASGSISTLNVMGWYRQAPGKQRELVAQITLDGSPEYADSVKGRFTITKDGAQSTLYLQMNNLKPEDTAVYFCKLENGGFFYYWGQGTQVTVST

Tests used:
[1] = target: T1, SARS-CoV-2 wild type receptor binding domain (RBD) (SARS-CoV-2, UniProt P0DTC2); assay: SPR
[2] = target: T1, SARS-CoV-2 wild type receptor binding …; assay: crystal structure

Binder | binding result [1] | binding result [2]
B1 | binds | 
B2 |  | binds
B3 |  | binds
